Assay results from patent US20220009987A9, “HUMAN RESISTIN COMPOSITIONS AND METHODS OF TREATING TLR4-MEDIATED DISEASE AND INFECTION” (THE REGENTS OF THE UNIVERSITY OF CALIFORNIA, priority 2017, published 2022).
“Also recorded” adds a separate entry of the source.

Key:
human PBMCs = assay: Human PBMC functional assay, LPS-induced cytokine secretion (ELISA); type: cell-based
Protocol: Human PBMCs. Human buffy coat was purchased from Zen-bio. Buffy coat was overlaid on top of Histopaque-1077 and spun at 700g at 25° C. with no brake and PBMCs were recovered from the interphase. PBMCs were plated in 96-well plates and stimulated with mammalian-derived human resistin (1 μg/mL, LifeSpan Biosciences) or hRetn N-peptide (1 μg/mL). After 24 hours, ultrapure LPS (100 ng/mL, Invivogen) was added and supernatants recovered for ELISA at 24 hours. Where indicated, cells were incubated for 4 hours with STAT3 (5, 15-DPP, 50 μM) or TBK1 (BX-795, 1 μM) inhibitors prior to hRetn treatment. For the hRetn competitive binding assay, 1×10^6 cells were incubated with recombinant hRetn (0.5 μg), washed in PBS then incubated with 0.5 μg LPS-biotin (incubations were 30 minutes on ice). Cells were washed in FACS buffer, treated with Fc block, and stained with BV605-conjugated streptavidin and α-human primary antibodies: CD14 (clone M5E2), CD11 b (clone M1/70) and MD2/TLR4 (clone HTA125) purchased from Affymetrix.
Cytokine Quantification. Sandwich ELISAs were performed using capture and biotinylated antibodies for human resistin (Peprotech), IL-10 and TNFα (BD Biosciences) according to manufacturer's instructions. Detection was performed with streptavidin-peroxidase (Jackson ImmunoResearch) and TMB peroxidase substrate (BD Biosciences), followed by addition of 2N H2SO4. Optical density (OD) was captured at 450 nm. Samples were compared to serial-fold dilution of recombinant protein. For Luminex, inflammatory cytokine kits (Affymetrix) were run according to manufacturer's instructions and quantified on Luminex MagPix (Luminex Corp.). For cytokine bead array, cytokine kits from BD Bioscience were run according to manufacturer's instructions on BD LSRII and analyzed using FCAP Array Software.

TLR4 = assay: hRetn cellular binding assay on dissociated lung cells from Nb-infected Tlr4+/+ or Tlr4−/− mice; type: cell-based, mouse
Protocol: Binding Assay and Flow Cytometry. Single cell suspension of lung tissue was prepared and hRetn binding was measured as previously described in Jang et al., 2015, supra. Briefly, dissociated lung cells were incubated for 1 hour at 4° C. with 0.5 μg recombinant hResistin (Peprotech) or PBS, followed by 2× wash in FACS buffer, incubation with Fc block (5 μg/mL αCD16/32 and 10 μg/mL purified rat IgG1, 5 min at 4° C.). Cells were stained with biotinylated α-hRetn (Peprotech, 30 min at 4° C.) followed by detection with BV605-conjugated streptavidin (BD) and surface marker antibodies. To collect peritoneal exudate cells (PECs), the peritoneal cavity was washed and PECs recovered in 5 mL ice cold PBS. Surface marker antibodies were: F4/80 (clone A3-1), SiglecF (clone E50-2440), CD4 (clone RM4-5), Ly6C (HK1.4), CD11b (clone M1/70), CD11c (clone N418), Ly6G (clone 1A8), MHCII (clone M5/114.15.2) and CD3e (clone 145-2C11), CD115 (clone AFS98), purchased from Affymetrix, BD Biosciences or Biolegend. Cell populations were determined as follows: peritoneal macrophage (F4/80+CD11b+), neutrophils (Ly6G+CD11b+), eosinophils (SiglecF+CD11c−) and monocyte (Ly6C+CD11b+), alveolar macrophages (F4/80+CD11c+). For flow cytometric analysis, all samples were run on the BD LSRII and analyzed on FlowJo (v10).

human CAP1 = human CAP1 (Homo sapiens, UniProt Q01518); assay: Pull-down assay with His-tagged human CAP1; type: binding; conditions: nickel-NTA agarose beads, anti-hRetn blot
Sequence of human CAP1 (Q01518 whole entry): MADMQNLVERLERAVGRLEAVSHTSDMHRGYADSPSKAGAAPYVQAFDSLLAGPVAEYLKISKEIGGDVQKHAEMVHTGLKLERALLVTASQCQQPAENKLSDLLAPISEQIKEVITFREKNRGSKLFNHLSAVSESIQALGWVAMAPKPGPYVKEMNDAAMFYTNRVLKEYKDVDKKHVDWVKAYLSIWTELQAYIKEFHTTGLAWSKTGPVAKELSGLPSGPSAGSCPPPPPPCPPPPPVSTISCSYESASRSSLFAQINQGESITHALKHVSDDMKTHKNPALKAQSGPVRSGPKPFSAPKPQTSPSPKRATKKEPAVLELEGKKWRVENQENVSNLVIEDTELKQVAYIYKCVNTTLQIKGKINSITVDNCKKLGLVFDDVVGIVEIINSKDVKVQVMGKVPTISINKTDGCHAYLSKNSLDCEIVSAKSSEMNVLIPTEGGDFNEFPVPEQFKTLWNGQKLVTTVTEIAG
Protocol: Pull-down Assay. 1 μg/ml protein His-tagged MBP, human TLR4 and human CAP1 were added to nickel-nitrilotriacetic acid-agarose beads (Invitrogen) in binding buffer (50 mM NaH2PO4, 500 mM NaCl, 10 mM Imidazole, pH 8.0) and mixed for 1 hour at 4° C., followed by washing and 1 h incubation at 4° C. with hRetn (E. coli-derived, Peprotech or 293T cell-derived, LifeSpan Biosciences) in binding buffer. Beads were washed in wash buffer (50 mM NaH2PO4, 500 mM NaCl, 20 mM Imidazole, pH 8.0), and complex protein eluted with elution buffer (50 mM NaH2PO4, 500 mM NaCl, 250 mM Imidazole, pH 6.0). His-MBP, His-TLR4 and His-CAP1 were detected by anti-His antibody (Abcam), and hRetn was detected by anti-hRetn antibody (donated by Mitchell Lazar) by Western Blot. For the N-peptide binding experiment, 1 μg/ml His-tagged human TLR4 with 500 ng/ml N-peptide or 10% TFE control was added to the beads in binding buffer and mixed for 30 min at 4° C., followed by co-immunoprecipitation using 1 μg/ml Flag-hRetn (LifeSpan Biosciences), anti-His or anti-Flag (Sigma).

[1] = human PBMC, pre-treatment then LPS 100 ng/mL

B1: hRetn: human resistin protein (hRetn) having an amino acid sequence of SEQ ID NO: 1; recombinant, E. coli-derived or 293T cell-derived (protein, listed as Homo sapiens)
chain: MKALCLLLLPVLGLLVSSKTLCSMEEAINERIQEVAGSLIFRAISSIGLECQSVTSRGDLATCPRGFAVTGCTCGSACGSWDVRAETTCHCQCAGMDWTGARCCRVQP
hRetn functional effect on TNFα and IL-10 when STAT3 signaling was inhibited (human PBMCs; human PBMC, 5,15-DPP 50 μM 4 hours prior to hRetn): also abrogated | hRetn functional effect on TNFα and IL-10 in the presence of TBK1 inhibitor (human PBMCs; human PBMC, BX-795 1 μM 4 hours prior to hRetn): abrogated | IL-10 expression after LPS (human PBMCs; [1]): increased IL-10 expression | LPS-induced TNFα secretion (human PBMCs; [1]): significantly more TNFα than cells treated with hRetn and LPS; also recorded: significantly reduced LPS-induced TNFα secretion | hRetn binding to alveolar macrophages (TLR4; F4/80+CD11c+ lung cells, Tlr4+/+ vs Tlr4−/−): TLR4-dependent binding | hRetn binding to Tlr4−/− monocytes (TLR4; Ly6C+CD11b+ lung cells, Nb-infected mice): significantly abrogated | hRetn binding to neutrophils in the absence of TLR4 (TLR4; Ly6G+CD11b+ lung cells, Tlr4−/−): not noticeably affected | frequency of hRetn-bound cells in monocytes (TLR4; lung cells, Nb-infected mice): 15% | frequency of hRetn-bound cells in neutrophils (TLR4; lung cells, Nb-infected mice): 8% | hRetn in pull-down elution with his-CAP1 (Western blot) (human CAP1): not his-CAP1
